Experimental data: patent US20230067770A1 (SHANGHAI HENLIUS BIOTECH, published 2023)
Values belong to the binder of their own block, whether it stands above or below them.

Columns and labels:
Human CD137-his [1] = target: T1, Human CD137-his (human, UniProt Q07011 24-186); experiment: BLI (Octet), third comparison, antibody captured on AHC sensor
T1 construct: Bought reagent; also called Human CD137-His (Sino Biological, 10041-H08H)
Method: (§1) Biolayer interferometry was used to measure the association and dissociation constants for the binding kinetics of the anti-CD137 antibodies. The binding kinetics was measured on a FortieBio Octet Red 96 at 30° C. and analyzed with the FortieBio Data Analysis 9.0 software. Anti-human-IgG Fc (AHC) sensor was used to capture the anti-CD137 antibodies or control antibodies. A kinetic buffer only well was set as a reference well for subtraction during data processing. Data were fitted with a 1:1 Langmuir model for association and dissociation using Rmax linked global fitting for each antibody-antigen binding. Human CD137-his is a recombinant CD137 antigen with a poly histidine tag fused to C-terminus of human CD137 antigen (Sino Biological, 10041-H08H). Cyno CD137-his is a recombinant CD137 antigen with a poly histidine tag fused to C-terminus of cynomolgus CD137 antigen (Sino Biological, 90847-K02H-100).

Human CD137-his [2] = target: T1, Human CD137-his; experiment: BLI (Octet), second round, antibody captured on AHC sensor
Method: as §1

[3] = target: T2, human CD137-Fc fusion protein (human, UniProt Q07011 24-186, limits assumed); experiment: ELISA, hybridoma supernatant on plates coated with human CD137-Fc fusion protein
T2 construct: also called huCD137
Method: Hybridoma screening. Detection of binding to huCD137 by ELISA: To identify hybridomas secreting anti-human CD137 antibodies, ELISA plates (Corning) were coated with human CD137-Fc fusion protein at 1 μg/ml in PBS overnight at 4° C. […] Thirty microliters of supernatants diluted 1:3 in PBS were added to the plates and incubated for 1-2 hour at ambient temperature. Afterwards, the plates were washed as before, and binding of antibodies was detected through Horseradish peroxidase (HRP)-conjugated goat F(ab′)2 anti-human IgG. The plates were developed with TMB and read at 450 nm.

[4] = target: T3, human-CD137 (ELISA antigen of the affinity maturation screen) (human, UniProt Q07011 24-186, limits assumed); experiment: ELISA of Fab in supernatants after phage panning
T3 construct: also called human-CD137 ECD

B1: 2-9-1 IgG1 SELF (antibody)
heavy: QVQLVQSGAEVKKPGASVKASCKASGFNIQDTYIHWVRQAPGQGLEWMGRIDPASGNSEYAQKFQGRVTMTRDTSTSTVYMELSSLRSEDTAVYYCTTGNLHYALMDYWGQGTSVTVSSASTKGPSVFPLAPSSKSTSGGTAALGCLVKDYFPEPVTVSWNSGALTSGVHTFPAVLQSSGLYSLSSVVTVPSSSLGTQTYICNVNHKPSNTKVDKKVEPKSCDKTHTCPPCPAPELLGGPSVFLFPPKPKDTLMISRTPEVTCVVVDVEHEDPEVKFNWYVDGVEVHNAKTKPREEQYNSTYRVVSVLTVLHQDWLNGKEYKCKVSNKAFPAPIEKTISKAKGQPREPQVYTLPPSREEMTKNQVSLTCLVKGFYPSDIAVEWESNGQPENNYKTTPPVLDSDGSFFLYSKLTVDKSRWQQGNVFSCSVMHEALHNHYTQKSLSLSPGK
light: DIQMTQSPSSVSASVGDRVTITCKASQPINTYLSWYQQKPGKAPKLLIYRVNRKVDGVPSRFSGSGSGTDFTLTISSLQPEDFATYYCLQYLDFPYTFGGGTKLEIKRTVAAPSVFIFPPSDEQLKSGTASVVCLLNNFYPREAKVQWKVDNALQSGNSQESVTEQDSKDSTYSLSSTLTLSKADYEKHKVYACEVTHQGLSSPVTKSFNRGEC
notes: Subclone of 2-9 with an IgG1 Fc carrying S267E/L328F; also called clone 2-9-1 IgG1 SELF; Clone 2-9 IgG1 SELF
Kd (Human CD137-his [1]): 11.1 nM
koff (Human CD137-his [1]): 0.0006 s⁻¹
kon (Human CD137-his [1]): 54100 M⁻¹ s⁻¹
Kd (Human CD137-his [2]): 6.55 nM
koff (Human CD137-his [2]): 0.00034 s⁻¹
kon (Human CD137-his [2]): 52000 M⁻¹ s⁻¹

B2: 2-9-2 IgG4 (antibody)
heavy: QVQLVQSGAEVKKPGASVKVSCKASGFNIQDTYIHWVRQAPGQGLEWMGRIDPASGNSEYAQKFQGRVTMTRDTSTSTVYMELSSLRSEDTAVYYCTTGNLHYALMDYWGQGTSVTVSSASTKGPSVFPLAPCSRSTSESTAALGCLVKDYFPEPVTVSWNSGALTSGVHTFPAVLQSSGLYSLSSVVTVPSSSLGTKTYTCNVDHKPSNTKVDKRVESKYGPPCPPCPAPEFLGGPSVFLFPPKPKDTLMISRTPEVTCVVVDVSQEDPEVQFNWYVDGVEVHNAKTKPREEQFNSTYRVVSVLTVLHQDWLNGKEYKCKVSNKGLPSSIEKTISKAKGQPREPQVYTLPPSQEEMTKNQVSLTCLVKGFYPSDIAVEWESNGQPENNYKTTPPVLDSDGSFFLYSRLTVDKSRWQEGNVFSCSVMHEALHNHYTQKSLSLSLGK
light: DIQMTQSPSSVSASVGDRVTITCKASQPINTYLSWYQQKPGKAPKLLIYRVNRKVDGVPSRFSGSGSGTDFTLTISSLQPEDFATYYCLQYLDFPYTFGGGTKLEIKRTVAAPSVFIFPPSDEQLKSGTASVVCLLNNFYPREAKVQWKVDNALQSGNSQESVTEQDSKDSTYSLSSTLTLSKADYEKHKVYACEVTHQGLSSPVTKSFNRGEC
notes: Subclone of 2-9; also called clone 2-9-2 IgG4 wt
Kd (Human CD137-his [1]): 12.9 nM
koff (Human CD137-his [1]): 0.000801 s⁻¹
kon (Human CD137-his [1]): 62200 M⁻¹ s⁻¹

B3: hybridoma anti-CD137 antibody clone 3.10 (antibody, V domains shown)
VH: EVQLVESGPGLVAPSQSLSITCTVSGFSLTTYDVSWIRQPPGKGLEWLGVIWTGGGTNYNSTFMSRLTISKDNSKNQVFLKMNSLQTDDTATYYCVRVDYWGQGTTLTVSR
VL: DVVMTQTPLSLPVSLGGHASISCRSSQSLVHNNGNTYLHWFLQKPGQSPKLLIYKVSNRFSGVPDRFSGSGSGTDFTLKISRVEAEDLGVYFCSQNAHVPWTFGGGTKLEIKR
notes: Tested as hybridoma supernatant
binding result [3]: binds

B4: hybridoma anti-CD137 antibody clone 29.39 (antibody, V domains shown)
VH: EVKLMESGAELVKPGASVKLSCTASGFNIKDTYIHWVKQRPEQGLEWIGKIDPANGNTEYDLNFQGRATITADTSSNTAYLQLSSLTSEDTAVYYCTTGNLHYYLMDYWGQGTSVTSLE
VL: DIVMTQSPSSMYASLGERVTITCKASQAINTYLSWFQQKPGKSPKTLIYRANRMVDGVPSRFSGSGSGQDYSLTISSLDYEDMGIYYCLQYDDFPYTFGGGTKLEIKR
notes: as for B3
binding result [3]: binds

B5: hybridoma anti-CD137 antibody clone 30.19 (antibody, V domains shown)
VH: QIQLVQSGPELKKPGETVKISCKASGYSFTDYSIHWVKQAPGKGLKWMGWMNTETGEPAYADDFKGRFAFSLETAASTAYLQINHLRDEDTATYFCTRSSYGYFDYWGQGTTLTVSS
VL: DIVMTQSPSSMYASLGERVTITCKASQAINTYLSWFQQKPGKSPKTLIYRANRMVDGVPSRFSGSGSGQDYSLTISSLDYEDMGIYYCLQYDDFPYTFGGGTKLEIKR
notes: as for B3
binding result [3]: binds

B6: hybridoma anti-CD137 antibody clone 44.21 (antibody, V domains shown)
VH: EVKLMESGAELVKPGASVKLSCTASGFNIKDTYIHWVKQRPEQGLEWIGKIDPANGNTEYDLNFQGRATITADTSSNTAYLQLSSLTSEDTAVYYCTTGNLHYYLMDYWGQGTSVTSLE
VL: DIVMTQTPLSLPVSLGDHASISCRSSQSLVHSNGNTYLHWFLQKPGQSPKLLIYKVSNRFSGVPDRFSGSGSGTDFTLKISRVEAEDLGVYFCSQNAHVPWTFGGGTKRKSNE
notes: as for B3
binding result [3]: binds

B7: hybridoma anti-CD137 antibody clone 6.62 (antibody, V domains shown)
VH: QIQLVQSGPELKKPGETVKISCKASGYSFTDYSIHWVKQAPGKGLKWMGWMNTETGEPAYADDFKGRFAFSLETAASTAYLQINHLRDEDTATYFCTRSSYGYFDYWGQGTTLTVSS
VL: DVVMTQTPLSLPVSLGDQAAISCRSSQTLEHINGNTYLEWYLQKPGQSPKLLIYKVSDRFSGVPDRFSGSGSGTGFTLKISRVEAEDLGVYYCFQGSHFPLTFGGGTKLELK
notes: as for B3
binding result [3]: binds

B8: Clone 23 (Fab in supernatant) (Fab, V domains shown)
VH: QVQLVQSGAEVKKPGASVKVSCKASGFNIKDTYIHWVRQAPGQGLEWMGKIDPANGQTEYAQKFQGRVTMTRDTSTSTVYMELSSLRSEDTAVYYCTTGNLHYALMDYWGQGTSVTVSS
VL: DIQMTQSPSSVSASVGDRVTITCKASQAINTYLSWYQQKPGKAPKLLIYRANRMVGGVPSRFSGSGSGTDFTLTISSLQPEDFATYYCLQYRDFPYTFGGGTKLEIKR
notes: Screened as Fab in supernatant
binding result [4]: binds

B9: Clone 19 (Fab in supernatant) (Fab, V domains shown)
VH: QVQLVQSGAEVKKPGASVKVSCKASGFNMKDTYIHWVRQAPGQGLEWMGKIDPANGATEYAQKFQGRVTMTRDTSTSTVYMELSSLRSEDTAVYYCTTGNLHYGLMDYWGQGTSVTVSS
VL: DIQMTQSPSSVSASVGDRVTITCKASQAINTYLSWYQQKPGKAPKLLIYRANRMGDGVPSRFSGSGSGTDFTLTISSLQPEDFATYYCLQSDDFPYTFGGGTKLEIKR
notes: as for B8
binding result [4]: binds

B10: Clone 5 (Fab in supernatant) (Fab, V domains shown)
VH: QVQLVQSGAEVKKPGASVKVSCKASGFNIRDTYIHWVRQAPGQGLEWMGKIDPANGNTEYAQKFQGRVTMTRDTSTSTVYMELSSLRSEDTAVYYCTTGNLHYGLMDYWGQGTSVTVSS
VL: DIQMTQSPSSVSASVGDRVTITCKASQAINTYHSWYQQKPGKAPKLLIYRVNRMVDGVPSRFSGSGSGTDFTLTISSLQPEDFATYYCLQYLDFPYTFGGGTKLEIKR
notes: as for B8
binding result [4]: binds

B11: Clone 18 (Fab in supernatant) (Fab, V domains shown)
VH: QVQLVQSGAEVKKPGASVKVSCQASGFNIKDTYIHWVRQAPGQGLGWMGKIDPANGMTEYAQKFQGRVTVTRDTSTSTVYMELSSLRSEDTAVYYCTTGNLHYALMDYWGQGTSVTVSS
VL: DIQMTQSPSSVSASVGDRVTITCKASQAPNTYLSWYQQKPGKAPKLLIYRANRMVDGVPSRFSGSGSGTDFTLTISSLQPEDFATYYCLQYEDFPYTFGGGTKLEIKR
notes: as for B8
binding result [4]: binds

The remaining lines, values ahead:

binding result [4]: binds
B12: Clone 9 (Fab in supernatant) (Fab, V domains shown)
VH: QVQLVQSGAEVKKPGASVKVSCKASGFNLKDTYIHWVRQAPGQGLEWMGKIDPANGNTEYAQKFQGRVTMTRDTSTSTVYMELSSLRSEDTAVYYCTTGNLHYALMDYWGQGTSVTVSS
VL: DIQMTQSPSSVSASVGDRVTITCKASQAIATYLSWYQQKPGKAPKLLIYRANRMYDGVPSRFSGSGSGTDFTLTISSLQPEDFATYYCLQFDDFPYTFGGGTKLEIKR
notes: as for B8

binding result [4]: binds
B13: Clone 3 (Fab in supernatant) (Fab, V domains shown)
VH: QVQLVQSGAEVKKPGASVKVSCKASGFNPKDTYIHWVRQAPGQGLEWMGRIDPANGFTEYAQKFQGRVTMTRDTSTSTVYMELSSLRSEDTAVYYCTTGNLHYALMDYWGQGTSVTVSS
VL: DIQMTQSPSSVSASVGDRVTITCKASQAINTYLSWYQQKPGKAPKLLIYRANRMVDGVPSRFSGSGSGTDFTLTISSLQHEDFATYYCLQSDDFPYTFGGGTKLEIKR
notes: Screened as Fab in SS320 culture supernatant

binding result [4]: binds
B14: Clone 25 (Fab in supernatant) (Fab, V domains shown)
VH: QVQLVQSGAEVKKPGASVKVSCKASGFNIQDTYIHWVRQAPGQGLEWMGRIDPANGNSEYAQKFQGRVTMTRDTSTSTVYMELSSLRSEDTAVYYCTTGNLHYGLMDYWGQGTSVTVSS
VL: DIQMTQSPSSVSASVGDRVTITCKASQAINTYLSWYQQKPGKAPKLLIYRDNRKVDGVPSRFSGSGSGTDFTLTISSLQPEDFATYYCLQYQDFPYKFGGGTKLEIKR
notes: as for B8

binding result [4]: binds
B15: Clone 2-11 (Fab in supernatant) (Fab, V domains shown)
VH: QVQLVQSGAEVKKPGASVKVSCKASGFNIKDTYIHWVRQAPGQGLEWMGKIDPANGGTEYAQKFQGRVTMTRDTSTSTVYMELSSLRSEDTAVYYCTTGNLHYALMDYWGQGTSVTVSS
VL: DIQMTQSPSSVSASVGDRVTITCKASQPINTYLSWYQQKPGKAPKLLIYRVNRKVDGVPSRFSGSGSGTDFTLTISSLQPEDFATYYCLQYVDFPYTFGGGTKLEIKR
notes: as for B8

binding result [4]: binds
B16: Clone 20 (Fab in supernatant) (Fab, V domains shown)
VH: QVQLVQSGAEVKKPGASVKVSCKASGFNMKDTYIHWVRQAPGQGLEWMGKIDPANGDTEYAQKFQGRVTMTRDTSTSTVYMELSSLRSEDTAVYYCTTGNLHYALMDYWGQGTSVTVSS
VL: DIQMTQSPSSVSASVGDRVTITCKASQAINTYLSWYQQKPGKAPKLLIYRANRAVDGVPSRFSGSGSGTDFTLTISSLQPEDFATYYCLQYLDFPYTFGGGTKLEIKR
notes: as for B8

binding result [4]: binds
B17: Clone 35 (Fab in supernatant) (Fab, V domains shown)
VH: QVQLVQSGAEVKKPGASVKVSCKASGFNINDTYIHWVRQAPGQGLEWMGRIDPANGYTEYAQKFQGRVTMTRDTSTSTVYMELSSLRSEDTAVYYCTTGNLHYALMDYWGQGTSVTVSS
VL: DIQMTQSPSSVSASVGDRVTITCKASQAIATYLSWYQQKPGKAPKLLIYRANRMVDGVPSRFSGSGSGTDFTLTISSLQPEDFATYYCLQFQDFPYTFGGGTKLEIKR
notes: as for B8

binding result [4]: binds
B18: Clone 33 (Fab in supernatant) (Fab, V domains shown)
VH: QVQLVQSGAEVKKPGASVKVSCKASGFNIKDTYIQWVRQAPGQGLEWMGKIDPANGNTMYAQKFQGRVTMTRDTSTSTVYMELSSLRSEDTAVYYCTTGNLHYALMDYWGQGTSVTVSS
VL: DIQMTQSPSSVSASVGDRVTITCKASQTINTYLSWYQQKPGKAPKLLIYRANRMPDGVPSRFSGSGSGTDFTLTISSLQPEDFATYYCLQYDDFPYTFGGGTKLEIKR
notes: as for B8
